Reference: patent US20210380994A1, “LACTOCOCCUS LACTIS EXPRESSION SYSTEM FOR DELIVERING PROTEINS EFFICACIOUS FOR THE TREATMENT OF EPITHELIAL BARRIER FUNCTION DISORDERS” (Second Genome, Inc., priority 2018, published 2021)

Tested on: mice treated with DSS
Assay: DSS model of colitis with SG-11V5 protein and SG-11V5-expressing L. lactis (Example 22)
Assay type: in vivo
Method: Specifically, the mice in this Example 22 were treated with DSS, a chemical known to induce intestinal epithelial damage and thereby reduce intestinal barrier integrity and function. These DSS mice were then administered an L. lactis strain expressing SG-11V5 as described above, or a positive or negative control treatment.
In this study, 3 independent groups of mice (10 mice per group) were used to test the 3 different L. lactis strains: Group 1: L. lactis harboring parent pNZ8124 vector, Group 2: L. lactis harboring inducible SG-11V5 vector (PnisA:otsBA::PnisA:SPusp45:SG-11V5), and Group 3: L. lactis harboring constitutive SG-11V5 vector (PnisA:otsBA::Pusp45:SPusp45:SG-11V5). Each of the strains in Groups 1-3 had been grown until the cultures reached an OD600 of about 0.5, induced with nisin for 2 hours, concentrated to about 10^11 cells/mL in PBS with glycerol, and stored at −80° C. Cells were analyzed by Western blot to confirm protein expression. An additional 4 groups of mice (n=10 per group) were included as controls: Group 4: untreated; Group 5: treated p.o. with vehicle only; Group 6: intraperitoneal (i.p.) administration of Gly2-GLP2 (50 nmoles/kg); and Group 7: i.p. administration of SG-11V5 protein (160 nmoles/kg (4.0 mg/kg).
I.p. administration of Gly2-GLP2 and SG-11V5 was done twice per day, with i.p. administration to the right abdomen in the morning and to the left abdomen in the evening for 6 consecutive days (Day 0-Day 5) and then to the right abdomen on Day 6 prior to euthanasia and tissue recovery. Gly2-GLP2 (CPC Scientific Peptide Company) was prepared by dissolving in PBS(Corning 21-040-CV) with 5 mM NaOH to a concentration of 5 mg/mL Aliquots were stored at −80C prior to use.
Following a 7-day acclimation period, treatments wore initiated in the morning (AM) of Day 0 with i.p. administration of Gly2-GLP2 or purified SG-11V5 protein as a positive control, oral gavage of strain vehicle only (phosphate buffered saline (PBS; Corning 21-040-CV)), or with oral gavage administration of the appropriate L. lactis expression strain.
Fresh drinking water treated with 2.5% DSS was prepared and provided to all the mice on Days 0, 2, and 4 about 6 hours after AM dosing. […] Also, treatments were continued with the L. lactis strains described above once a day (q.d) in the morning with p.o. administration at 10^10 CFU of the strains comprising i) pNZ8124 vector, ii) inducible SG-11V5 vector, or iii) constitutive SG-11V5 vector.
On Day 6, only AM dosing was performed for intraperitoneal (i.p.) injection of protein and oral gavage (p.o) administration of L. lactis strains expressing SG-11V5 protein. Mice were fasted for 4 hours and then orally gavaged with 600 mg/kg 4KDa dextran labeled with fluorescin isothiocyanate (FITC) [4KDa-FITC]. About 50 minutes after the 4KDa-FITC gavage, mice were anesthetic with ketamine (ket)/xylazine (xyl) drug. Mice were injected with 10 ml/kg i.p of 10 mg/ml ketamine and 1 mg/ml xylazine (100 ul per 10 g body weight). One hour after administering 4KDa-FITC and about 10 minutes after ketamine/xylazine anesthesia, mice were euthanized, and blood and tissues were collected to assess barrier function and DSS model readouts. […]
Upon completion of the DSS models above, LBP levels were measured as an inflammation centric readout of barrier function following the protocol detailed above in Examples 7 and 13. […] LBP levels were measured in serum using a commercially available ELISA Kit (Enzo Life Sciences). […]

[1] = SG-11V5 protein 160 nmoles/kg i.p. b.i.d.

B1: SG-11V5: variant of SEQ ID NO:7 with N53S, N83S, C147V, C151S (protein)
chain: MLEGEESVVYVGKKGVIASLDVETLDQSYYDETELKSYVDAEVEDYTAEHGKSAVKVESLKVEDGVAKLKMKYKTPEDYTAFSGIELYQGKVVASLAAGYVYDGEFARVEEGKVVGAATKQDIYSEDDLKVAIIRANTDVKVDGEIVYVSSQNVKLTGKDSVSIRDGYYLETGSVTASVDVTGQESVGTEQLSGTEQMEMTGEPVNADDTEQTEAAAGDGSFETDVYTFIVYK
modifications: Artificial variant of SG-11 (N53S, N83S, C147V, C151S)
B1 was tested, and the body weight (SG-11V5 160 nmoles/kg i.p. b.i.d., day 6) was “significant improvement in body weight”, the colon length [1] was “significant increase in the colon length” and the colon weight-to-length ratio [1] was “significant decrease in the colon weight-to-length ratio”. The “gross pathology (clinical score 0-5)” value (SG-11V5 protein 160 nmoles/kg i.p. b.i.d., p<0.0001) was “significant improvement in gross pathology” and the “4KDa-FITC dextran translocation across the epithelial barrier” value (SG-11V5 protein 160 nmoles/kg i.p. b.i.d., vs DSS + vehicle) was “non-significant increase”.
